Target: the molecule itself
Test: cryo-EM structure

B1: GsuCas2 (Geobacter sulfurreducens Cas2), tag cleaved (natural protein)
chain: MEHLYIVSYDIRNQRRWRRLFKTMHGFGCWLQLSVFQCRLDRIRIIKMEAAINEIVNHAEDHVLILDLGPAENVKPKVSSIGKTFDPILRQAVIV
  stoichiometry N: 2

B2: GsuCas4/Cas1 (Geobacter sulfurreducens type I-G Cas4/Cas1 natural fusion), tag cleaved (natural protein)
chain: MAETDGSIPLIPVRMLNEHVYCPRLAYLMWVQGEFSHNEFTVDGVIRHRRVDAGGGVLPSETQEDSRIHARSVSLSSERLGITAKIDLVEGEGAYVSPVDYKRGKRPHVAGGAYEPERVQLCAQGLLLREHGFASDGGALYFVASRERVPVAFDDELIGRTLAAIDEMGRTALSGTMPPPLEDSPKCPRCSLVGICLPDEVRFLSHLSVEPRPIIPADGRGLPLYVQSPKAYVRKDGDCLVIEEERVRVAEARLGETSQVALFGNATLTTAALHECLRREIPVTWLSYGGWFMGHTVSTGHRNVETRTYQYQRSFDPETCLNLARRWIVAKIANCRTLLRRNWRGEGDEAKAPPGLLMSLQDDMRHAMRAPSLEVLLGIEGASAGRYFQHFSRMLRGGDGEGMGFDFTTRNRRPPKDPVNALLSFAYAMLTREWTVALAAVGLDPYRGFYHQPRFGRPALALDMMEPFRPLIADSTVLMAINNGEIRTGDFVRSAGGCNLTDSARKRFIAGFERRMEQEVTHPIFKYTISYRRLLEVQARLLTRYLSGEIPAYPNFVTR
  stoichiometry N: 2

From article PMC9164213 (Nature, 2021)
